One series relates to LSETG. The series can be described thus: In vitro sortase kinetics HPLC assay, LSETG substrate. Format: biochemical. The procedure:
(§1) See below for details on sortase expression and purification, and on the synthesis of Abz-LPETGK(Dnp)-CONH2 (SEQ ID NO: 19). […] Reactions were initiated with the addition of enzyme and incubated at 22.5° C. for 3 to 20 minutes before quenching with 0.5 volumes of 1 M HCl. Five to ten nmol of peptide from the quenched reactions were injected onto an analytical reverse-phase Eclipse XDB-C18 HPLC column (4.6×150 mm, 5 μm, Agilent Technologies) and chromatographed using a gradient of 10 to 65% acetonitrile with 0.1% TFA in 0.1% aqueous TFA over 13 minutes. Retention times under these conditions for the Abz-LPETGK(Dnp)-CONH2 (SEQ ID NO: 19) substrate, the released GKDnp peptide, and the Abz-LPETGGG-COOH (SEQ ID NO: 20) product were 12.8, 10.4, and 9.1 min, respectively. To calculate the percent conversion, the ratio of the integrated areas of the Abz-LPETGGG-COOH (SEQ ID NO: 20) and Abz-LPETGK(Dnp)-CONH2 (SEQ ID NO: 19) peptide Abs220 peaks was compared to a standard curve generated by mixing the product and starting peptide in known ratios. To determine […] and Km, reaction rates were fit to the Michaelis-Menten equation using OriginPro 7.0 software. All kinetics values reported represent the average of at least three measurements. Percent conversion was also calculated by using the ratio of the integrated areas of the GK(Dnp)-CONH2 and Abz-LPETGK(Dnp)-CONH2 peptide Abs355 peaks were compared directly (Example 5). To determine kcat and Km, LPETG, reaction rates were fit to the Michaelis-Menten equation using Microsoft Excel using the Solver add-in. To determine Km,GGG and KH, reaction rates were fit to the modified Michaelis-Menten, for which KH is as defined when KH<<Km,GGG.
(§2) Assays to determine eSrtA, eSrtA(2A-9) and eSrtA(4S-9) specificity were performed by preparing 10 μM stocks of Abz-LXEXGK(Dnp) (SEQ ID NO: 75) peptides in 300 mM Tris pH 7.5, 150 mM NaCl, 5 mM CaCl2, 5% v/v DMSO, and 100 mM Gly-Gly-Gly-COOH (GGG). Reactions were performed by adding eSrtA(2A-9) to a final concentration of 450 nM, eSrtA(4S-9) to a final concentration of 115 nM or eSrtA to a final concentration of 47.5 nM and a final volume of 100 μL, then incubating at 22.5° C. for 15 minutes. Reactions were quenched by the addition of 0.2 volumes of 5 M HCl, then were injected onto an analytical reverse-phase Eclipse XDB-C18 HPLC column (4.6×150 mm, 5 μm, Agilent Technologies) and chromatographed using a gradient of 10 to 65% acetonitrile with 0.1% TFA in 0.1% aqueous TFA over 13 minutes. Retention times under these conditions for the Abz-LPETGK(Dnp)-CONH2 (SEQ ID NO: 19) substrate, the released GKDnp peptide, and the Abz-LPETGGG-COOH (SEQ ID NO: 20) product were 12.8, 10.4, and 9.1 min, respectively, while the remaining Abz-LXEXGK(Dnp)-CONH2 (SEQ ID NO: 74) substrates varied in retention time between 9 and 13 minutes. To calculate the percent conversion, the ratio of the integrated areas of the GK(Dnp)-CONH2 and Abz-LPETGK(Dnp)-CONH2 (SEQ ID NO: 19) peptide Abs355 peaks were compared directly. Subsequent determination of kcat/Km and KH were performed as described for in vitro SrtA characterization.
(§3) The original pentamutant comprising the mutations P94R, D160N, D165A, K190E, and K196T is referred to as eSrtA. Sortase variants herein were evolved using eSrtA as the parent enzyme in the evolution experiments. In some cases, an evolved sortase comprises a N160K mutation instead of a D160N or a T196S mutation instead of a K196T. Parameters are reported with their standard deviations as determined from three technical replicates. kcat, Km and kcat/Km parameters were determined at 100 mM GGG concentration, while Km,GGG and KH parameters were determined at 1 mM concentration of the listed substrate.

A short description of series [1]: Differential scanning fluorimetry for thermal melting curves. In kind it is physicochemical. The procedure:
FIGS. 25A-C show thermal melting curves for eSrtA variants. Each protein was freshly expressed and purified, then diluted to 40 μM in 100 mM Tris pH 7.5, 500 mM NaCl. Differential scanning fluorimetry was performed using the Life Technologies Protein Thermal Shift™ Dye kit according to manufacturers' instructions. Thermal scanning was performed on Biorad CFX96-Real Time PCR (25° C. to 99° C., 0.2° C./2s increments). To calculate Tm, fluorescence intensity was fit to the Boltzmann equation using Microsoft Excel using the Solver add-in. Melting curves were plotted with best-fit fluorescence intensities that were normalized to maximum fluorescence intensity. Tm values are shown with their standard deviations as determined from three technical replicates.
To determine thermal stability of eSrtA, eSrtA(2A-9), eSrtA(4S-9), and variants thereof, each protein was freshly expressed and purified, then diluted to 40 μM in 100 mM Tris pH 7.5, 500 mM NaCl. Differential scanning fluorimetry was performed using the Life Technologies Protein Thermal Shift™ Dye kit according to manufacturers' instructions. […] To calculate Tm, fluorescence intensity was fit to the Boltzmann equation using Microsoft Excel using the Solver add-in. Melting curves were plotted with best-fit fluorescence intensities that were normalized to maximum fluorescence intensity.
(In DSF a fluorescence change marks the thermal transition of the protein.)

In the next series the test system is LPEAG. The series can be described thus: In vitro sortase kinetics HPLC assay, LPEAG substrate. Format: biochemical. As to the method: as §1, §2, §3
[2] abbreviates: Sub LSETG, 100 mM GGG, read-out: Km.
[3] abbreviates: Sub LPEAG, 100 mM GGG, read-out: Km.

Where two headings read alike, the source gives them in different places.

Results on three molecules are retold here after patent US10202593B2, “Evolved sortases and uses thereof” (President and Fellows of Harvard College, priority 2013, dated 2019).

A word on the Km: it is the substrate concentration at which the rate is half of its maximum.

B1: eSrtA(2A-9): P94R, S102C, A104H, E105D, K138P, K152I, N160K, K162H, T164N, D165A, K173E, I182V, K190E, T196S (protein)
chain: QAKPQIPKDKSKVAGYIEIPDADIKEPVYPGPATREQLNRGVCFHDENESLDDQNISIAGHTFIDRPNYQFTNLKAAKPGSMVYFKVGNETRIYKMTSIRKVHPNAVEVLDEQEGKDKQLTLVTCDDYNEETGVWESRKIFVATEVK
B1: the “KH” value in the series with LSETG (1 mM LSETG) is 26.0 ± 3.4 µM. Moreover, the Km is 1270 ± 200 µM with LSETG (1 mM LSETG, read-out: Km,GGG) and 331 ± 67 µM in the series with LSETG (setting [2]). The “Kcat (Hz)” value with LSETG (Sub LSETG, 100 mM GGG) is recorded as 0.115 ± 0.007 Hz. Further, the “ΔTm compared to eSrtA” value in series [1] was approximately 4.4 °C.

B2: eSrtA (protein)
chain: QAKPQIPKDKSKVAGYIEIPDADIKEPVYPGPATREQLNRGVSFAEENESLDDQNISIAGHTFIDRPNYQFTNLKAAKKGSMVYFKVGNETRKYKMTSIRNVKPTAVEVLDEQKGKDKQLTLITCDDYNEETGVWETRKIFVATEVK
As for B2, the “KH” value with LSETG (1 mM LSETG) turned out to be 37.4 ± 3.4 µM; in the series with LPEAG (1 mM LPEAG), 599 ± 41 µM. The Michaelis-Menten constant (Km) in the series on LSETG (1 mM LSETG, read-out: Km,GGG) was 337 ± 16 µM; in the series on LSETG (setting [2]), 533 ± 24 µM; in the series with LPEAG (1 mM LPEAG, read-out: Km,GGG) it was 48400 ± 3100 µM; in the series on LPEAG (setting [3]), 83.4 ± 0.6 µM. For the same molecule, the “Kcat (Hz)” value in the series on LSETG (Sub LSETG, 100 mM GGG) worked out at 0.102 ± 0.001 Hz; in the series on LPEAG (Sub LPEAG, 100 mM GGG), 0.74 ± 0.04 Hz.

B3: eSrtA(4S-9): P94R, N98D, S102C, A104V, A118T, F122A, K134R, F144L, D160N, D165A, I182V, E189F, K190E, K196T (protein)
chain: QAKPQIPKDKSKVAGYIEIPDADIKEPVYPGPATREQLDRGVCFVEENESLDDQNISITGHTAIDRPNYQFTNLRAAKKGSMVYLKVGNETRKYKMTSIRNVKPTAVEVLDEQKGKDKQLTLVTCDDYNFETGVWETRKIFVATEVK
For the molecule B3, the “KH” value in the series on LPEAG (1 mM LPEAG) was determined as 193 ± 30 µM. In addition, the Michaelis constant (Km) came out at 41000 ± 4000 µM in the series with LPEAG (1 mM LPEAG, read-out: Km,GGG) and 154 ± 3 µM in the series with LPEAG (setting [3]). The “Kcat (Hz)” value with LPEAG (Sub LPEAG, 100 mM GGG) came to 1.90 ± 0.01 Hz. In addition, the “ΔTm compared to eSrtA” value in series [1] was approximately 4.4 °C.
